In this assay the target is Human C5a receptor 2 (human) (UniProt Q9P296). Description: 125I-C5a displacement, SPA on Flp-In CHO-C5a2 membranes.
Human C5a receptor 2 (human), sequence (Q9P296 whole entry): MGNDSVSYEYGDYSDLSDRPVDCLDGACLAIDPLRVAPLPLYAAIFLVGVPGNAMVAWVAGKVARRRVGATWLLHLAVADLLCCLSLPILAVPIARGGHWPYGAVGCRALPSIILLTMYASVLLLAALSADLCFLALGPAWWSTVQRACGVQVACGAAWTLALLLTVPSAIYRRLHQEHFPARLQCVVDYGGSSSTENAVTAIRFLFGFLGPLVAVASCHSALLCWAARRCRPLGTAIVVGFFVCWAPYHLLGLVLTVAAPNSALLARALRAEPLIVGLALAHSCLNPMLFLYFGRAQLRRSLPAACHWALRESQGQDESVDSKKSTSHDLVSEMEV

Human isolated C3a-des Arg, P01024 672-747 (ligand; other documents disagree on this pair), sequence (P01024 672-747 limits assumed): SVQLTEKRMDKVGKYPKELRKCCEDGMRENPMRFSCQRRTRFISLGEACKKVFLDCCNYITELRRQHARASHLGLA
Human isolated C3a, P01024 672-748 (ligand; other documents disagree on this pair), sequence (P01024 672-748): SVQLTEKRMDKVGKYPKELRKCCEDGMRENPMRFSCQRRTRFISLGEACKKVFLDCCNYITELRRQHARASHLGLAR

In general, Ki refers to the equilibrium dissociation constant of an inhibitor or competing ligand from its target. Low values mean tighter binding, high ones weaker binding. Take “Human isolated C3a, P01024 672-748 (ligand; other documents disagree on this pair)”: the Ki is > 1 µM. Turning to “Human isolated C3a-des Arg, P01024 672-747 (ligand; other documents disagree on this pair)”, the inhibition constant (Ki) is > 1 µM.
